Assay results reported in patent US20240166727A1 (CEINGE BIOTECNOLOGIE AVANZATE SCARL, published 2024).

Target: Spike glycoprotein on SARS-COV-2 viral particles (Italian Variant, Genbank MT682732.1, GISAID EPI_ISL_477204) (SARS-COV-2, UniProt P0DTC2 14-1273)
Assay: cell-based or functional assay

B1: D3 mAb (fully human IgG4 anti-Spike RBD antibody) (antibody, V domains shown)
VH: QVQLVQSGAEVKKPGATVKISCKVSGYTFTDYYMHWVQQAPGKGLEWMGLVDPEDGETIYAEKFQGRVTITADTSTDTAYMELSSLRSEDTAVYYCARGAKATLGLWGQGTLVTVSR
VL: ELTQDPAVSVALGQTVRITCQGDSLRSYYASWYQQKPGQAPVLVIYGKNNRPSGIPDRFSGSSSGNTASLTITGAQAEDEADYYCNSRDSSGNHVVFGGGTKLTVL
IC50 of inhibition of viral infectivity (VERO E6 cells, 0.5 MOI): 15 µg/mL
